Broadly, the Kd is the constant that tells how readily two partners part at equilibrium. A high value points to lower affinity.

Results on 32 molecules are retold here after publication PMC10786891, “Massively parallel profiling of RNA-targeting CRISPR-Cas13d”.

Positions count from the first letter of the chain named. Numbers in names are those of the source.

First the molecules themselves.
T1: EsCas13d, nuclease-dead (Eubacterium siraeum, UniProt B0MS50, R295A;H300A;R849A;H854A)
T1 sequence: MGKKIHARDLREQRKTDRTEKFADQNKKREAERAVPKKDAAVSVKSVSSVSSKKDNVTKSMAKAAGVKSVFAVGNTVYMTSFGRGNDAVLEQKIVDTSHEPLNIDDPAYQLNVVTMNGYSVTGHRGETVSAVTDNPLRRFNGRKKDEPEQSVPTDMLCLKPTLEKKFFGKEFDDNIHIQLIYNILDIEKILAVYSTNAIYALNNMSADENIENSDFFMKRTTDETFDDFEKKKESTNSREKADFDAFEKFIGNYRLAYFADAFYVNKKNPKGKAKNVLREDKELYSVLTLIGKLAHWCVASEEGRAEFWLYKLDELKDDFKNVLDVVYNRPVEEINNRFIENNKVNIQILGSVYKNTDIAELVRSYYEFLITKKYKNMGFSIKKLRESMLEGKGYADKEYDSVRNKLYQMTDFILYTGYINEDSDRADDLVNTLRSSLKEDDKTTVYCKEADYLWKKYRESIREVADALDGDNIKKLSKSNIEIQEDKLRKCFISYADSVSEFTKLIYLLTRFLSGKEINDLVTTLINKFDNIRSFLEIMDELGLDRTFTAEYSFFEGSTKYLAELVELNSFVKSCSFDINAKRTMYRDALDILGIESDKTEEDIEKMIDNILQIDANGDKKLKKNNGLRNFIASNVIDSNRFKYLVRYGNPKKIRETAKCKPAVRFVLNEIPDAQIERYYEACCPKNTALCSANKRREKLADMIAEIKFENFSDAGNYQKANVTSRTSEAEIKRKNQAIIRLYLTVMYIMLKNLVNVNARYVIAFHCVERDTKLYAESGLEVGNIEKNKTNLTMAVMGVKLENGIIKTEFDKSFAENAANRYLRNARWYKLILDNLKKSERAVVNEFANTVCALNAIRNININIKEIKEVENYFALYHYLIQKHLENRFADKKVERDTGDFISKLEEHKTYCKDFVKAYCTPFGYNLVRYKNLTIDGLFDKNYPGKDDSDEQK

B1: target 1 insC 3' of 10,insA 3' of 10 (mixed)
RNA 1: CACCCGUGCAAAAAUGCAGGGGUCUAAAACUGAGCGGAUAACCUCUCUAUGG
RNA 2: GGGAAUGGAUCCACAUCUACGAAUUCGUACCAUAGAGAGGUUCAAUCCGCUCACCGAGAUCGGAAGAGCACACGU
B2: target 1 G12A,C21U (mixed)
RNA 1: B1 RNA 1
RNA 2: GGGAAUGGAUCCACAUCUACGAAUUCGUACUAUAGAGAGAUUAUCCGCUCACCGAGAUCGGAAGAGCACACGU
B3: target 1 insU 3' of 18,insA 3' of 5 (mixed)
RNA 1: B1 RNA 1
RNA 2: GGGAAUGGAUCCACAUCUACGAAUUCGUACCAUAUGAGAGGUUAUCCGACUCACCGAGAUCGGAAGAGCACACGU
B4: target 1 insA 3' of 8,insC 3' of 3 (mixed)
RNA 1: B1 RNA 1
RNA 2: B1 RNA 2 with C43A, A44U, U46C, C48G, G49C, C50U, U51C
B5: target 1 C6U,G17A (mixed)
RNA 1: B1 RNA 1
RNA 2: B2 RNA 2 with U31C, G35A, A40G, C46U
B6: target 1 insA 3' of 6,insA 3' of 2 (mixed)
RNA 1: B1 RNA 1
RNA 2: GGGAAUGGAUCCACAUCUACGAAUUCGUACCAUAGAGAGGUUAUCCAGCUCAACCGAGAUCGGAAGAGCACACGU
B7: target 1 insA 3' of 6,insU 3' of 1 (mixed)
RNA 1: B1 RNA 1
RNA 2: B6 RNA 2 with A53U
B8: target 1 insG 3' of 14,insA 3' of 13 (mixed)
RNA 1: B1 RNA 1
RNA 2: B1 RNA 2 with U41A, U42G, C43U, A44U
B9: target 1 insC 3' of 20,insU 3' of 12 (mixed)
RNA 1: B1 RNA 1
RNA 2: B3 RNA 2 with U33C, A34U, U35A, A44U, U45A, C46U, G48C, A49G
B10: target 1 G17C,C22A (mixed)
RNA 1: B1 RNA 1
RNA 2: B2 RNA 2 with C30A, U31C, G35C, A40G
B11: target 1 insA 3' of 4 (mixed)
RNA 1: B1 RNA 1
RNA 2: GGGAAUGGAUCCACAUCUACGAAUUCGUACCAUAGAGAGGUUAUCCGCAUCACCGAGAUCGGAAGAGCACACGU
B12: target 1 insA 3' of 6,insG 3' of 1 (mixed)
RNA 1: B1 RNA 1
RNA 2: B6 RNA 2 with A53G
B13: target 1 del15,del20 (mixed)
RNA 1: B1 RNA 1
RNA 2: GGGAAUGGAUCCACAUCUACGAAUUCGUACCUAGAAGGUUAUCCGCUCACCGAGAUCGGAAGAGCACACGU
B14: target 1 G5A,G13A (mixed)
RNA 1: B1 RNA 1
RNA 2: B2 RNA 2 with U31C, G39A, A40G, G47A
B15: target 1 G5U,U10A (mixed)
RNA 1: B1 RNA 1
RNA 2: B2 RNA 2 with U31C, A40G, U42A, G47U
B16: target 1 insU 3' of 21,insG 3' of 16 (mixed)
RNA 1: B1 RNA 1
RNA 2: GGGAAUGGAUCCACAUCUACGAAUUCGUACCUAUAGAGGAGGUUAUCCGCUCACCGAGAUCGGAAGAGCACACGU
B17: target 1 C2U,G12U (mixed)
RNA 1: B1 RNA 1
RNA 2: B2 RNA 2 with U31C, A40U, C50U
B18: target 1 C2G,U3A (mixed)
RNA 1: B1 RNA 1
RNA 2: B2 RNA 2 with U31C, A40G, U49A, C50G
B19: target 1 C4A,A18G (mixed)
RNA 1: B1 RNA 1
RNA 2: B2 RNA 2 with U31C, A34G, A40G, C48A
B20: target 1 U8C,G13A (mixed)
RNA 1: B1 RNA 1
RNA 2: B2 RNA 2 with U31C, G39A, A40G, U44C
B21: target 1 complement block 1-3 (mixed)
RNA 1: B1 RNA 1
RNA 2: B2 RNA 2 with U31C, A40G, U49A, C50G, A51U
B22: target 1 insC 3' of 22 (mixed)
RNA 1: B1 RNA 1
RNA 2: GGGAAUGGAUCCACAUCUACGAAUUCGUACCCAUAGAGAGGUUAUCCGCUCACCGAGAUCGGAAGAGCACACGU
B23: target 1 insC 3' of 17,insA 3' of 7 (mixed)
RNA 1: B1 RNA 1
RNA 2: B3 RNA 2 with U35G, G36C, C47A, G48C, A49G
B24: target 1 G12A,G13C (mixed)
RNA 1: B1 RNA 1
RNA 2: B2 RNA 2 with U31C, G39C
B25: target 1 G12U,C22G (mixed)
RNA 1: B1 RNA 1
RNA 2: B2 RNA 2 with C30G, U31C, A40U
B26: target 1 insU 3' of 22,insC 3' of 15 (mixed)
RNA 1: B1 RNA 1
RNA 2: B16 RNA 2 with C31U, U32C, G39C
B27: target 1 U3G,U8C (mixed)
RNA 1: B1 RNA 1
RNA 2: B2 RNA 2 with U31C, A40G, U44C, U49G
B28: target 1 insA 3' of 22,insU 3' of 12 (mixed)
RNA 1: B1 RNA 1
RNA 2: B16 RNA 2 with C31A, U32C, G39A, A40G, G42U
B29: target 1 U3C,U10C (mixed)
RNA 1: B1 RNA 1
RNA 2: B2 RNA 2 with U31C, A40G, U42C, U49C
B30: target 1 A18U,C21A (mixed)
RNA 1: B1 RNA 1
RNA 2: B2 RNA 2 with U31A, A34U, A40G
B31: target 1 del9,del20 (mixed)
RNA 1: B1 RNA 1
RNA 2: B13 RNA 2 with A36G, G37A, U39G, A41U
B32: target 1 insU 3' of 17,insG 3' of 3 (mixed)
RNA 1: B1 RNA 1
RNA 2: B3 RNA 2 with U35G, G36U, A49C, C50U, U51G

This data set concerns the target T1, EsCas13d, nuclease-dead. As to the kind of experiment: crRNA (strand 1, pre-loaded); Mg2+; 40 mM Tris-HCl pH 7.5, 150 mM NaCl, 6 mM MgCl2, 1 mM DTT, 0.1% Tween-20, 0.2 mg/ml BSA; 25 C; 10 min per concentration, then washed. The note with it: tags: His6-TwinStrep-SUMO cleaved; N-terminal SNAP kept (SNAP-Surface 488); label: 3' end held by stalled T7 RNA polymerase.
In turn, B1 returned a Kd of 13.5 ± 1 nM.
The result for B2 reads 7.8 ± 0.5 nM; that for B3, 23.7 ± 2.6 nM; that for B4, 15.8 ± 0.6 nM.
The result for B5 reads 42 ± 4 nM; that for B6, 18.7 ± 1.3 nM.
Consider B7, for which the dissociation constant Kd turned out to be 25 ± 5 nM. This Kd and that of the molecule before are within 1.5-fold of each other.
Under B8 stands 10.9 ± 0.5 nM; under B9, 6.19 ± 0.32 nM.
The result for B10 reads around 60 nM; that for B11, 8.5 ± 1.1 nM.
On to B12, for which binding was put at a Kd of 16 ± 1.2 nM.
Under B13 stands 90 ± 40 nM; under B14, 34 ± 7 nM; under B15, 95 ± 22 nM.
Under B16 stands 87 ± 23 nM; under B17, 10.5 ± 0.5 nM; under B18, 13.4 ± 1.3 nM.
Under B19 stands 68 ± 16 nM; under B20, 61 ± 12 nM; under B21, 7 ± 0.5 nM.
B22 showed a Kd of 14.7 ± 0.9 nM.
The result for B23 reads 38 ± 4 nM; that for B24, around 90 nM.
Under B25 stands 42 ± 6 nM.
Under B26 stands 67 ± 14 nM.
B27 registered a Kd of 7.2 ± 0.33 nM.
Under B28 stands 11.5 ± 1.1 nM; under B29, 51 ± 9 nM; under B30, 56 ± 6 nM.
Under B31 stands 52 ± 7 nM.
The result for B32 reads 23.4 ± 2.7 nM.
